Test results taken from article PMC11456856.

Molecular target: human FcRider (afucosylated two-unit tandem hIgG1 Fc joined by the trimerization sequence Foldon)
Assay: native gel or EMSA; blue native PAGE, 1.5 h at 150 V in NativePAGE running buffer; hFcRider purified by Protein A column; monomer ~65 kDa in reducing SDS-PAGE

- stoichiometry N: 6
Substance: human FcRider (afucosylated two-unit tandem hIgG1 Fc joined by the trimerization sequence Foldon)
